Like-named read-outs stand apart in the source and are kept apart here.
Key:
Assay in all cases: cell-based or functional assay
[1] = target: murine IL12 receptor complex (IL12Rβ1 and IL12Rβ2) on cells (murine) (UniProt Q60837)
[2] = target: murine IL12 receptor complex (IL12Rβ1 and IL12Rβ2) on cells (murine) (UniProt Q60837); remark: listed apart in the source
[3] = target: murine IL12 receptor complex (IL12Rβ1 and IL12Rβ2) on cells (murine) (UniProt Q60837); remark: listed apart in the source

Sequence of murine IL12 receptor complex (IL12Rβ1 and IL12Rβ2) on cells (murine) (Q60837 20-738, chain 1 of 2): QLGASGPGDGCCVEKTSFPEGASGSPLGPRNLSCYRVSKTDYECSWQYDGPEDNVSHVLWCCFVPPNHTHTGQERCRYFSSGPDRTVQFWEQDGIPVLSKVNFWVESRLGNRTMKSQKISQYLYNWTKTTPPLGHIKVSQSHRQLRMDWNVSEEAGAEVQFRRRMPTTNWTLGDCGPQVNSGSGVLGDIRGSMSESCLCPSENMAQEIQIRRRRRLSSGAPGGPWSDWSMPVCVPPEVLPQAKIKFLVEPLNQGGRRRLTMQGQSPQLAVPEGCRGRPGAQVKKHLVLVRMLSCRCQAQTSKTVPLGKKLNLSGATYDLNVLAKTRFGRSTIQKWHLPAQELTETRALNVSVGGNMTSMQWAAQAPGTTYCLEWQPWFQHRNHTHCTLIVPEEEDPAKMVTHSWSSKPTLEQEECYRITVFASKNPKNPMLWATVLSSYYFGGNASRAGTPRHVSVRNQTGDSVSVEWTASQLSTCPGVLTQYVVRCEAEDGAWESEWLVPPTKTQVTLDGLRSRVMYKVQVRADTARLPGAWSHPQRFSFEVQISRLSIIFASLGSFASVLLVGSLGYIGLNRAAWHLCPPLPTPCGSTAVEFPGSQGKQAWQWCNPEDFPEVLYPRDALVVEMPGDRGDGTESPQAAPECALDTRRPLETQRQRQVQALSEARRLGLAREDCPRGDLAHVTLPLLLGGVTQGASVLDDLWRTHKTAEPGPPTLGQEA
Sequence of murine IL12 receptor complex (IL12Rβ1 and IL12Rβ2) on cells (murine) (P97378 24-874, chain 2 of 2, further chain): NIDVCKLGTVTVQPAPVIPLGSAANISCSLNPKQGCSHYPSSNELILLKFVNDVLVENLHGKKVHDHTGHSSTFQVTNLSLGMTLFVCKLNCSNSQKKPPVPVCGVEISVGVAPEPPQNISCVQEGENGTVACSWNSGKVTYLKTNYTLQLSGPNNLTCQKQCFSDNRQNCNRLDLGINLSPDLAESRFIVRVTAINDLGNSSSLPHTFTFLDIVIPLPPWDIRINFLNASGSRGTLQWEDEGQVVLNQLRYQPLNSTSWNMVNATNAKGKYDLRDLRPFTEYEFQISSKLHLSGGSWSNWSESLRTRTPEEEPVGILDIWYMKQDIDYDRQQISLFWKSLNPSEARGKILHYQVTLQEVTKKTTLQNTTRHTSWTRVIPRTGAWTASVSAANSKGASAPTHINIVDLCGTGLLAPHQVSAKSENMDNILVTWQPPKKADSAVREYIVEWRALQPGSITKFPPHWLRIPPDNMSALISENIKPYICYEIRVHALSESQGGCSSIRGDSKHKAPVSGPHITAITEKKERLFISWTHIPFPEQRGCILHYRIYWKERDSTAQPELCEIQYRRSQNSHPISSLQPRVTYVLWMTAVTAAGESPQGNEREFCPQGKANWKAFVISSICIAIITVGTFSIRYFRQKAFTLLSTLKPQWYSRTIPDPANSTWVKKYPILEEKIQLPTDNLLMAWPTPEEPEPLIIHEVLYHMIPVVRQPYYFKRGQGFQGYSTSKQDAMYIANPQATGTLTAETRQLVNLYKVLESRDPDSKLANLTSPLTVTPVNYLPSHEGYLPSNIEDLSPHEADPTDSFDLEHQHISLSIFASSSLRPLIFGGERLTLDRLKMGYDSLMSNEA

- EC50 (M), STAT3-Luc reporter, CTLL2/STAT3-Luc cells [1]: 5.56e-11 M
- Fold induction at 6.25 nM, STAT3-Luc reporter, CTLL2/STAT3-Luc cells [1]: 12.2 fold
- Max fold induction, STAT3-Luc reporter, CTLL2/STAT3-Luc cells [1]: 12.4 fold
- EC50 (M), STAT3-Luc reporter, CTLL2/STAT3-Luc cells [2]: 3.46e-11 M
- Fold induction at 20 nM, STAT3-Luc reporter, CTLL2/STAT3-Luc cells [2]: 18.8 fold
- Max fold induction, STAT3-Luc reporter, CTLL2/STAT3-Luc cells [2]: 19.1 fold
- EC50 (M), STAT3-Luc reporter, CTLL2/STAT3-Luc cells [3]: 3.71e-10 M
- Max fold induction, STAT3-Luc reporter, CTLL2/STAT3-Luc cells [3]: 17.8 fold
B1: Recomb mIL12 (ligand, mouse)
chain 1: MWELEKDVYVVEVDWTPDAPGETVNLTCDTPEEDDITWTSDQRHGVIGSGKTLTITVKEFLDAGQYTCHKGGETLSHSHLLLHKKENGIWSTEILKNFKNKTFLKCEAPNYSGRFTCSWLVQRNMDLKFNIKSSSSSPDSRAVTCGMASLSAEKVTLDQRDYEKYSVSCQEDVTCPTAEETLPIELALEARQQNKYENYSTSFFIRDIIKPDPPKNLQMKPLKNSQVEVSWEYPDSWSTPHSYFSLKFFVRIQRKKEKMKETEEGCNQKGAFLVEKTSTEVQCKGGNVCVQAQDRYYNSSCSKWACVPCRVRS
chain 2: RVIPVSGPARCLSQSRNLLKTTDDMVKTAREKLKHYSCTAEDIDHEDITRDQTSTLKTCLPLELHKNESCLATRETSSTTRGSCLPPQKTSLMMTLCLGSIYEDLKMYQTEFQAINAALQNHNHQQIILDKGMLVAIDELMQSLNHNGETLRQKPPVGEADPYRVKMKLCILLHAFSTRVVTINRVMGYLSSA
